Test results reported in US10239925B2, “Peptides and combination of peptides for use in immunotherapy against ovarian cancer and other cancers” (IMMATICS BIOTECHNOLOGIES GMBH, priority 2015, dated 2019).

Molecular target: HLA-A*02:01 (Homo sapiens, UniProt P04439, D140Y/D185E/D98H/E176V/E277Q/G131W/G231S/I119V/I121R/I166T/I218V/L300P/L318F/N151K/N90K/P208A/P217A/Q86G/Q94H/R138H/R169H/T345S)
Experiment: MHC binding assay (UV-ligand exchange, anti-β2m ELISA, peptide exchange yield)
Settings: binding to HLA-A*02:01
Summary of the method: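 Peptide-MHC complexes formed by UV-ligand exchange, cleaving a UV-sensitive placeholder peptide in favour of the test peptide. Exchange yield measured by ELISA: monomers diluted 100-fold onto streptavidin-coated plates, 1 h 37 °C, detected with 2 ug/ml HRP anti-β2m and TMB, absorbance at 450 nm.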

Row | Substance | Peptide exchange (MHC class I binding score, peptide exchange yield)
1 | 230 (ILVDWLVEV; listed as Homo sapiens) [compound 230] | “+” (>10% = +)
2 | 479 (SLFGNSGILENV; listed as Homo sapiens) [compound 479] | “+++” (>50 = +++)
3 | 495 (FIFSEKPVFV; listed as Homo sapiens) [compound 495] | “+++” (>50 = +++)
4 | 59 (IMEDIILTL; listed as Homo sapiens) [compound 59] | “+++” (>50 = +++)
5 | 51 (LLPDLEFYV; listed as Homo sapiens) [compound 51] | “++++” (>75% = ++++)
6 | 100 (YLLSTNAQL; listed as Homo sapiens) [compound 100] | “++++” (>75% = ++++)
7 | 574 (YLLQEPPRTV; listed as Homo sapiens) [compound 574] | “++” (>20% = ++)
8 | 510 (KLYSVVSQL; listed as Homo sapiens) [compound 510] | “++” (>20% = ++)
9 | 154 (ALDDGTPAL; listed as Homo sapiens) [compound 154] | “++” (>20% = ++)
10 | 22 (IMEENPGIFAV; listed as Homo sapiens) [compound 22] | “+++” (>50 = +++)
11 | 593 (GLPRFGIEMV; listed as Homo sapiens) [compound 593] | “+++” (>50 = +++)
12 | 466 (VLIANLEKL; listed as Homo sapiens) [compound 466] | “++++” (>75% = ++++)
13 | 397 (YLFGERLLEC; listed as Homo sapiens) [compound 397] | “+++” (>50 = +++)
14 | 88 (FLLVGDLMAV; listed as Homo sapiens) [compound 88] | “+++” (>50 = +++)
15 | 515 (LLQELVLFL; listed as Homo sapiens) [compound 515] | “+++” (>50 = +++)
16 | 306 (ALVNVQIPL; listed as Homo sapiens) [compound 306] | “+++” (>50 = +++)
17 | 214 (FLLDLDPLLL; listed as Homo sapiens) [compound 214] | “+++” (>50 = +++)
18 | 102 (YLFESEGLVL; listed as Homo sapiens) [compound 102] | “+++” (>50 = +++)
19 | 439 (YLLQEIYGI; listed as Homo sapiens) [compound 439] | “+++” (>50 = +++)
20 | 221 (ALYEEGLLL; listed as Homo sapiens) [compound 221] | “++” (>20% = ++)
21 | 365 (YVIDQGETDVYV; listed as Homo sapiens) [compound 365] | “+++” (>50 = +++)
22 | 355 (SIQQSIERLLV; listed as Homo sapiens) [compound 355] | “++” (>20% = ++)
23 | 527 (FLLEPGNLEV; listed as Homo sapiens) [compound 527] | “++++” (>75% = ++++)

Row | Substance | Peptide exchange (MHC class I binding score, peptide exchange yield)
24 | 140 (YMDAPKAAL; listed as Homo sapiens) [compound 140] | “++” (>20% = ++)
25 | 348 (ILLDVKTRL; listed as Homo sapiens) [compound 348] | “++++” (>75% = ++++)
26 | 400 (SLLTEQDLWTV; listed as Homo sapiens) [compound 400] | “++” (>20% = ++)
27 | 15 (VLLTFKIFL; listed as Homo sapiens) [compound 15] | “++” (>20% = ++)
28 | 267 (ALQDFLLSV; listed as Homo sapiens) [compound 267] | “+++” (>50 = +++)
29 | 498 (KLWTGGLDNTV; listed as Homo sapiens) [compound 498] | “+++” (>50 = +++)
30 | 325 (FIMPATVADATAV; listed as Homo sapiens) [compound 325] | “+++” (>50 = +++)
31 | 159 (GLVGNPLPSV; listed as Homo sapiens) [compound 159] | “++++” (>75% = ++++)
32 | 539 (ALFDAQAQV; listed as Homo sapiens) [compound 539] | “+++” (>50 = +++)
33 | 354 (LILEGVDTV; listed as Homo sapiens) [compound 354] | “++” (>20% = ++)
34 | 569 (KLVDRTWTL; listed as Homo sapiens) [compound 569] | “+++” (>50 = +++)
35 | 389 (LLADVTHLL; listed as Homo sapiens) [compound 389] | “++” (>20% = ++)
36 | 158 (KLFDVDEDGYI; listed as Homo sapiens) [compound 158] | “+++” (>50 = +++)
37 | 162 (YQQAQVPSV; listed as Homo sapiens) [compound 162] | “+++” (>50 = +++)
38 | 432 (TLIEESAKV; listed as Homo sapiens) [compound 432] | “++” (>20% = ++)
39 | 496 (FLVEKQPPQV; listed as Homo sapiens) [compound 496] | “+++” (>50 = +++)
40 | 67 (TLLAEALVTV; listed as Homo sapiens) [compound 67] | “+++” (>50 = +++)
41 | 452 (ILLEHGADPNL; listed as Homo sapiens) [compound 452] | “+++” (>50 = +++)
42 | 552 (GLLDLPFRVGV; listed as Homo sapiens) [compound 552] | “+++” (>50 = +++)
43 | 99 (ALVSKGLATV; listed as Homo sapiens) [compound 99] | “++” (>20% = ++)
44 | 284 (ILLSQTTGV; listed as Homo sapiens) [compound 284] | “+++” (>50 = +++)
45 | 336 (ILLTAIVQV; listed as Homo sapiens) [compound 336] | “+++” (>50 = +++)
46 | 248 (FLFPNQYVDV; listed as Homo sapiens) [compound 248] | “+++” (>50 = +++)

Row | Substance | Peptide exchange (MHC class I binding score, peptide exchange yield)
47 | 363 (KVLDVSDLESV; listed as Homo sapiens) [compound 363] | “++” (>20% = ++)
48 | 592 (RLLSAAENFL; listed as Homo sapiens) [compound 592] | “+++” (>50 = +++)
49 | 618 (VLFDSESIGIYV; listed as Homo sapiens) [compound 618] | “+++” (>50 = +++)
50 | 255 (VLASYNLTV; listed as Homo sapiens) [compound 255] | “+++” (>50 = +++)
51 | 623 (YLVEDIQHI; listed as Homo sapiens) [compound 623] | “+++” (>50 = +++)
52 | 565 (ALQETPTSV; listed as Homo sapiens) [compound 565] | “++” (>20% = ++)
53 | 493 (GLLGEKTQDLIGV; listed as Homo sapiens) [compound 493] | “+++” (>50 = +++)
54 | 35 (KINDTIYEV; listed as Homo sapiens) [compound 35] | “+++” (>50 = +++)
55 | 270 (LLLDEEGTFSL; listed as Homo sapiens) [compound 270] | “++” (>20% = ++)
56 | 456 (LLIGHLERV; listed as Homo sapiens) [compound 456] | “+++” (>50 = +++)
57 | 263 (LLVSNLDFGV; listed as Homo sapiens) [compound 263] | “+++” (>50 = +++)
58 | 304 (MTLGQIYYL; listed as Homo sapiens) [compound 304] | “+++” (>50 = +++)
59 | 612 (YLYNEGLSV; listed as Homo sapiens) [compound 612] | “+++” (>50 = +++)
60 | 114 (SLVGEPILQNV; listed as Homo sapiens) [compound 114] | “++” (>20% = ++)
61 | 289 (VLLEIEDLQV; listed as Homo sapiens) [compound 289] | “++++” (>75% = ++++)
62 | 408 (VLDDSIYLV; listed as Homo sapiens) [compound 408] | “++” (>20% = ++)
63 | 46 (ILTEENIHL; listed as Homo sapiens) [compound 46] | “+++” (>50 = +++)
64 | 277 (LLPPLESLATV; listed as Homo sapiens) [compound 277] | “++” (>20% = ++)
65 | 246 (LLWEVVSQL; listed as Homo sapiens) [compound 246] | “+++” (>50 = +++)
66 | 251 (ALYTGFSILV; listed as Homo sapiens) [compound 251] | “++” (>20% = ++)
67 | 25 (FLPDEPYIKV; listed as Homo sapiens) [compound 25] | “+++” (>50 = +++)
